Measured values: patent US6416738B1, “Pretargeting methods and compounds” (NeoRx Corporation, priority 1973, dated 2002)

Molecular target: T1, NR-LU-10 antigen (Homo sapiens, UniProt P16422)
T1 construct: Positive NR-LU-10 tissue reactivity indicates NR-LU-10 antigen expression by such tissues; from tissue; host or cells: carcinoma and normal tissue specimens
T1 sequence (P16422 24-314): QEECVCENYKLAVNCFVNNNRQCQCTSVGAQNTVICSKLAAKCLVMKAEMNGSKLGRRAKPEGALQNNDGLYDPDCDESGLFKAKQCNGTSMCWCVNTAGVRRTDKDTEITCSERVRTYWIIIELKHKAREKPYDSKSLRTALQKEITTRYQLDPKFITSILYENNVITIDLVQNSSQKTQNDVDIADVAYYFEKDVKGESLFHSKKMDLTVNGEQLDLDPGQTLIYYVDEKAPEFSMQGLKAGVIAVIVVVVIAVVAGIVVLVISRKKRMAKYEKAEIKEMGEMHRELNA
Assay: NR-LU-10 reactivity with normal tissues (Table B)
Format: binding
Excerpt: Radioimmunoassays, immunoprecipitation and Fluorescence-Activated Cell Sorter (FACS) analysis were used to obtain reactivity profiles of NR-LU-10. The NR-LU-10 target antigen was present on either fixed cultured cells or in detergent extracts of various types of cancer cells. For example, the NR-LU-10 antigen is found in small cell lung, non-small cell lung, colon, breast, renal, ovarian, pancreatic, and other carcinoma tissues. Tumor reactivity of the NR-LU-10 antibody is set forth in Table A, while NR-LU-10 reactivity with normal tissues is set forth in Table B. The values in Table B are obtained as described below. Positive NR-LU-10 tissue reactivity indicates NR-LU-10 antigen expression by such tissues.
The tissue specimens were scored in accordance with three reactivity parameters: (1) the intensity of the reaction; (2) the uniformity of the reaction within the cell type; and (3) the percentage of cells reactive with the antibody. These three values are combined into a single weighted comparative value between 0 and 500, with 500 being the most intense reactivity. This comparative value facilitates comparison of different tissues. Table B includes a summary reactivity value, the number of tissue samples examined and the number of samples that reacted positively with NR-LU-10.

[1] = Adenoid: Lymphoid Follicle-Central
[2] = Adenoid: Lymphoid Follicle-Peripheral
[3] = Adrenal: Zona Fasciculata Cortex
[4] = Adrenal: Zona Glomerulosa Cortex
[5] = Adrenal: Zona Reticularis Cortex
[6] = Brain-Cerebellum: Axons, Myelinated
[7] = Brain-Cerebellum: Purkenje's Cells
[8] = Brain-Cerebrum: Axons, Myelinated
[9] = Brain-Midbrain: Axons, Myelinated
[10] = Gall Bladder: Mucosal Epithelium
[11] = Kidney: Distal Convoluted Tubules
[12] = Kidney: Proximal Convoluted Tubules
[13] = Liver: Central Lobular Hepatocyte
[14] = Lymph Node: Lymphoid Follicle-Central
[15] = Lymph Node: Lymphoid Follicle-Peripheral
[16] = Mammary Gland: Alveolar Epithelium

B1: NR-LU-10: 150 kilodalton IgG2b monoclonal antibody recognizing an approximately 40 kilodalton glycoprotein antigen expressed on most carcinomas (antibody, V domains shown)
VH: EVQLQQSGAELVKPGASVRLSCTASGFNIKDTYMHWVIERPEQGLEWIGRIDPANGNTKCDPKFQGKATITADTSSNTAYLQLSSLTSEDTAVYYCSREVLTGTWSLDYWGQGTSVTVSS
VL: DIQMIQSPSSMFASLGDRVSLSCRASQGIRGNLDWYQQKPGGTIKLLIYSTSNLNSGVPSRFSGSGSGSDYSLTISSLDSEDFADYYCLQRNAYPYTFGGGTKLEIK
# Pos/Exam (Adenoid): 3/3
Summary Reactivity (Adenoid): 433
# Pos/Exam (Adenoid: Epithelium): 0/3
Summary Reactivity (Adenoid: Epithelium): 0
# Pos/Exam [1]: 0/3
Summary Reactivity [1]: 0
# Pos/Exam [2]: 2/2
Summary Reactivity [2]: 400
# Pos/Exam (Adipose Tissue: Fat Cells): 0/3
Summary Reactivity (Adipose Tissue: Fat Cells): 0
# Pos/Exam (Adrenal: Medulla): 0/3
Summary Reactivity (Adrenal: Medulla): 0
# Pos/Exam [3]: 0/3
Summary Reactivity [3]: 0
# Pos/Exam [4]: 0/3
Summary Reactivity [4]: 0
# Pos/Exam [5]: 0/3
Summary Reactivity [5]: 0
# Pos/Exam (Aorta: Elastic Interna): 0/3
Summary Reactivity (Aorta: Elastic Interna): 0
# Pos/Exam (Aorta: Endothelium): 0/3
Summary Reactivity (Aorta: Endothelium): 0
# Pos/Exam (Aorta: Tunica Adventitia): 0/3
Summary Reactivity (Aorta: Tunica Adventitia): 0
# Pos/Exam (Aorta: Tunica Media): 0/3
Summary Reactivity (Aorta: Tunica Media): 0
# Pos/Exam [6]: 0/3
Summary Reactivity [6]: 0
# Pos/Exam (Brain-Cerebellum: Microglia): 0/3
Summary Reactivity (Brain-Cerebellum: Microglia): 0
# Pos/Exam (Brain-Cerebellum: Neurons): 0/3
Summary Reactivity (Brain-Cerebellum: Neurons): 0
# Pos/Exam [7]: 0/3
Summary Reactivity [7]: 0
# Pos/Exam [8]: 0/3
Summary Reactivity [8]: 0
# Pos/Exam (Brain-Cerebrum: Microglia): 0/3
Summary Reactivity (Brain-Cerebrum: Microglia): 0
# Pos/Exam (Brain-Cerebrum: Neurons): 0/3
Summary Reactivity (Brain-Cerebrum: Neurons): 0
# Pos/Exam [9]: 0/3
Summary Reactivity [9]: 0
# Pos/Exam (Brain-Midbrain: Microglia): 0/3
Summary Reactivity (Brain-Midbrain: Microglia): 0
# Pos/Exam (Brain-Midbrain: Neurons): 0/3
Summary Reactivity (Brain-Midbrain: Neurons): 0
# Pos/Exam (Colon: Mucosal Epithelium): 3/3
Summary Reactivity (Colon: Mucosal Epithelium): 500
# Pos/Exam (Colon: Muscularis Externa): 0/3
Summary Reactivity (Colon: Muscularis Externa): 0
# Pos/Exam (Colon: Muscularis Mucosa): 0/3
Summary Reactivity (Colon: Muscularis Mucosa): 0
# Pos/Exam (Colon: Nerve Ganglia): 0/3
Summary Reactivity (Colon: Nerve Ganglia): 0
# Pos/Exam (Colon: Serosa): 0/1
Summary Reactivity (Colon: Serosa): 0
# Pos/Exam (Duodenum: Mucosal Epithelium): 3/3
Summary Reactivity (Duodenum: Mucosal Epithelium): 500
# Pos/Exam (Duodenum: Muscularis Mucosa): 0/3
Summary Reactivity (Duodenum: Muscularis Mucosa): 0
# Pos/Exam (Epididymis: Epithelium): 3/3
Summary Reactivity (Epididymis: Epithelium): 419
# Pos/Exam (Epididymis: Smooth Muscle): 0/3
Summary Reactivity (Epididymis: Smooth Muscle): 0
# Pos/Exam (Epididymis: Spermatozoa): 0/1
Summary Reactivity (Epididymis: Spermatozoa): 0
# Pos/Exam (Esophagus: Epithelium): 3/3
Summary Reactivity (Esophagus: Epithelium): 86
# Pos/Exam (Esophagus: Mucosal Gland): 2/2
Summary Reactivity (Esophagus: Mucosal Gland): 450
# Pos/Exam (Esophagus: Smooth Muscle): 0/3
Summary Reactivity (Esophagus: Smooth Muscle): 0
# Pos/Exam [10]: 0/3
Summary Reactivity [10]: 467
# Pos/Exam (Gall Bladder: Smooth Muscle): 0/3
Summary Reactivity (Gall Bladder: Smooth Muscle): 0
# Pos/Exam (Heart: Myocardium): 0/3
Summary Reactivity (Heart: Myocardium): 0
# Pos/Exam (Heart: Serosa): 0/1
Summary Reactivity (Heart: Serosa): 0
# Pos/Exam (Ileum: Lymph Node): 0/2
Summary Reactivity (Ileum: Lymph Node): 0
# Pos/Exam (Ileum: Mucosal Epithelium): 0/2
Summary Reactivity (Ileum: Mucosal Epithelium): 0
# Pos/Exam (Ileum: Muscularis Externa): 0/1
Summary Reactivity (Ileum: Muscularis Externa): 0
# Pos/Exam (Ileum: Muscularis Mucosa): 0/2
Summary Reactivity (Ileum: Muscularis Mucosa): 0
# Pos/Exam (Ileum: Nerve Ganglia): 0/1
Summary Reactivity (Ileum: Nerve Ganglia): 0
# Pos/Exam (Ileum: Serosa): 0/1
Summary Reactivity (Ileum: Serosa): 0
# Pos/Exam (Jejunum: Lymph Node): 0/1
Summary Reactivity (Jejunum: Lymph Node): 0
# Pos/Exam (Jejunum: Mucosal Epithelium): 2/2
Summary Reactivity (Jejunum: Mucosal Epithelium): 400
# Pos/Exam (Jejunum: Muscularis Externa): 0/2
Summary Reactivity (Jejunum: Muscularis Externa): 0
# Pos/Exam (Jejunum: Muscularis Mucosa): 0/2
Summary Reactivity (Jejunum: Muscularis Mucosa): 0
# Pos/Exam (Jejunum: Nerve Ganglia): 0/2
Summary Reactivity (Jejunum: Nerve Ganglia): 0
# Pos/Exam (Jejunum: Serosa): 0/1
Summary Reactivity (Jejunum: Serosa): 0
# Pos/Exam (Kidney: Collecting Tubules): 2/3
Summary Reactivity (Kidney: Collecting Tubules): 160
# Pos/Exam [11]: 3/3
Summary Reactivity [11]: 500
# Pos/Exam (Kidney: Glomerular Eipithelium): 0/3
Summary Reactivity (Kidney: Glomerular Eipithelium): 0
# Pos/Exam (Kidney: Mesangial): 0/3
Summary Reactivity (Kidney: Mesangial): 0
# Pos/Exam [12]: 3/3
Summary Reactivity [12]: 500
# Pos/Exam (Liver: Bile Duct): 3/3
Summary Reactivity (Liver: Bile Duct): 500
# Pos/Exam [13]: 1/3
Summary Reactivity [13]: 4
# Pos/Exam (Liver: Kupffer Cells): 0/3
Summary Reactivity (Liver: Kupffer Cells): 0
# Pos/Exam (Liver: Periportal Hepatocyte): 1/3
Summary Reactivity (Liver: Periportal Hepatocyte): 40
# Pos/Exam (Lung: Alveolar Macrophage): 0/3
Summary Reactivity (Lung: Alveolar Macrophage): 0
# Pos/Exam (Lung: Bronchial Epithelium): 0/2
Summary Reactivity (Lung: Bronchial Epithelium): 0
# Pos/Exam (Lung: Bronchial Smooth Muscle): 0/2
Summary Reactivity (Lung: Bronchial Smooth Muscle): 0
# Pos/Exam (Lung: Pneumocyte Type I): 3/3
Summary Reactivity (Lung: Pneumocyte Type I): 354
# Pos/Exam (Lung: Pneumocyte Type II): 3/3
Summary Reactivity (Lung: Pneumocyte Type II): 387
# Pos/Exam [14]: 0/3
Summary Reactivity [14]: 0
# Pos/Exam [15]: 0/3
Summary Reactivity [15]: 0
# Pos/Exam [16]: 3/3
Summary Reactivity [16]: 500
# Pos/Exam (Mammary Gland: Duct Epithelium): 3/3
Summary Reactivity (Mammary Gland: Duct Epithelium): 500
# Pos/Exam (Mammary Gland: Myoepithelium): 0/3
Summary Reactivity (Mammary Gland: Myoepithelium): 0
# Pos/Exam (Muscle Skeletal: Muscle Fiber): 0/3
Summary Reactivity (Muscle Skeletal: Muscle Fiber): 0
# Pos/Exam (Nerve: Axon, Myelinated): 0/2
Summary Reactivity (Nerve: Axon, Myelinated): 0
# Pos/Exam (Nerve: Endoneurium): 0/2
